The results in this text go back to publication doi:10.1101/384248.

The assay concerns the target p53 (human (endogenous in HCT 116, MCF7, U2OS)), P04637. In words: co-IP. The settings on record: remark: other sources report otherwise.

p53 (human (endogenous in HCT 116, MCF7, U2OS)), P04637, sequence (P04637 whole entry): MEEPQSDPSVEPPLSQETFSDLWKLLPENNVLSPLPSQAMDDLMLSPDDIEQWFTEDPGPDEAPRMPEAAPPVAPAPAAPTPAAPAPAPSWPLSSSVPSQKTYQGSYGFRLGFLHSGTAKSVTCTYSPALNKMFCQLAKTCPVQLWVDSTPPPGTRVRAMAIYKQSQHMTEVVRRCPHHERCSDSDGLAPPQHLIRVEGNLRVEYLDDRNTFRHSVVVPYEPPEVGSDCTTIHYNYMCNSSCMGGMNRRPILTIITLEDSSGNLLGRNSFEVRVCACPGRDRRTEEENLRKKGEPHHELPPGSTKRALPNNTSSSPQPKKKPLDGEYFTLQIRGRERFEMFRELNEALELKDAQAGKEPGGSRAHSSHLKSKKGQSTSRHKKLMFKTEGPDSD

B1: MDMX, O15151 1-490 (natural protein)
chain: MTSFSTSAQCSTSDSACRISPGQINQVRPKLPLLKILHAAGAQGEMFTVKEVMHYLGQYIMVKQLYDQQEQHMVYCGGDLLGELLGRQSFSVKDPSPLYDMLRKNLVTLATATTDAAQTLALAQDHSMDIPSQDQLKQSAEESSTSRKRTTEDDIPTLPTSEHKCIHSREDEDLIENLAQDETSRLDLGFEEWDVAGLPWWFLGNLRSNYTPRSNGSTDLQTNQDVGTAIVSDTTDDLWFLNESVSEQLGVGIKVEAADTEQTSEEVGKVSDKKVIEVGKNDDLEDSKSLSDDTDVEVTSEDEWQCTECKKFNSPSKRYCFRCWALRKDWYSDCSKLTHSLSTSDITAIPEKENEGNDVPDCRRTISAPVVRPKDAYIKKENSKLFDPCNSVEFLDLAHSSESQETISSMGEQLDNLSEQRTDTENMEDCQNLLKPCSLCEKRPRDGNIIHGRTGHLVTCFHCARRLKKAGASCPICKKEIQLVIKVFIA
As for B1, the percent decrease of MDMX bound to p53 in cells treated with RITA came out at 43%.
